Measured values published in PMC2223497 (2026).

Experiments:
Assay in all cases: Scatchard binding assay
[1] = biological target: T1, G-CSF receptor (KU-1 cells) (Homo sapiens, UniProt Q99062)
T1 chain: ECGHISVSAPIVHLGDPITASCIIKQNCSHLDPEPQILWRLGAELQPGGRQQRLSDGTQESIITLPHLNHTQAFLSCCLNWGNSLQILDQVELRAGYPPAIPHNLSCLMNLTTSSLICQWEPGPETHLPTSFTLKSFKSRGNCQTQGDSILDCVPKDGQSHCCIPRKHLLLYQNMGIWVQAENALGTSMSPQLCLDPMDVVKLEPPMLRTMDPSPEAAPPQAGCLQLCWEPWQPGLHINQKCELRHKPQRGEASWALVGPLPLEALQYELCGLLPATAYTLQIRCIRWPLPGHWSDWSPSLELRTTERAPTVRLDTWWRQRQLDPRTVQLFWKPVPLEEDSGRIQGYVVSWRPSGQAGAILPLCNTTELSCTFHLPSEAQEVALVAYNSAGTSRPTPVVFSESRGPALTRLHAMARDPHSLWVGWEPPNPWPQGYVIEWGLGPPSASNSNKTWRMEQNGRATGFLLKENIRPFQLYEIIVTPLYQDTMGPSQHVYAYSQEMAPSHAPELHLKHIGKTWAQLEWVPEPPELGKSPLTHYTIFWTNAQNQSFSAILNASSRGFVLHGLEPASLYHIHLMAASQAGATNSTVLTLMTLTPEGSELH

[2] = biological target: T2, G-CSF receptor (NBT-2 cells) (Homo sapiens, UniProt Q99062)
T2 chain: T1 chain

[3] = biological target: T3, G-CSF receptor (KK cells) (Homo sapiens, UniProt Q99062)
T3 chain: T1 chain

Kd [1]: 0.49 nM
Kd [2]: 0.34 nM
Kd [3]: 0.103 nM
B1: G-CSF (protein)
chain: TPLGPASSLPQSFLLKCLEQVRKIQGDGAALQEKLVSECATYKLCHPEELVLLGHSLGIPWAPLSSCPSQALQLAGCLSQLHSGLFLYQGLLQALEGISPELGPTLDTLQLDVADFATTIWQQMEELGMAPALQPTQGAMPAFASAFQRRAGGVLVASHLQSFLEVSYRVLRHLAQP
